The target in test [1] is ACVR2A GBD-Fc (human) (UniProt P27037). The test is described as follows: SPR; BIAcore 3000; receptor-Fc (about 500 RU BMPR2-Fc WT or variants, 150 RU ACVR2A-Fc) captured on immobilised anti-human IgG (Fc), CM5 chip; single injections of 80 nM GF, single curve fits, averages of two independent injections; 25 °C; HBS/EPS (0.01 M Hepes, 0.5 M NaCl, 3 mM EDTA, 0.005% Tween 20, pH 7.4) with 0.1% bovine serum albumin; 50 μl/min; 1:1 binding model, KD = kd/ka. (In SPR one partner is held on a chip, and binding of the other changes the refractive index at the surface.)

In test [2] the target is BMPR2 GBD-Fc (WT) (human) (UniProt Q13873). Put plainly: SPR; BIAcore 3000; receptor-Fc captured on immobilised anti-human IgG (Fc), CM5 chip; titration, global fit of 2.5, 5.0, 10.0, 20.0 and 40.0 nM GF injections; 25 °C; HBS/EPS (0.01 M Hepes, 0.5 M NaCl, 3 mM EDTA, 0.005% Tween 20, pH 7.4) with 0.1% bovine serum albumin; 50 μl/min; 1:1 binding model, KD = kd/ka.
Test [3] has as its target BMPR2-Fc variant G47D (human) (UniProt Q13873). The description is as above.
Test [4] concerns the target BMPR2-Fc variant Q42R (human) (UniProt Q13873). The test is described as above.
In test [5] the target is BMPR2-Fc variant Q92H (human) (UniProt Q13873). The description is as above.
The target of test [6] is BMPR2-Fc variant S107P (human) (UniProt Q13873). Described as above.
In test [7] the target is BMPR2 GBD-Fc (WT) (human) (UniProt Q13873). The test is described as follows: SPR; BIAcore 3000; receptor-Fc (about 500 RU BMPR2-Fc WT or variants, 150 RU ACVR2A-Fc) captured on immobilised anti-human IgG (Fc), CM5 chip; single injections of 80 nM GF, single curve fits, averages of two independent injections; 25 °C; HBS/EPS (0.01 M Hepes, 0.5 M NaCl, 3 mM EDTA, 0.005% Tween 20, pH 7.4) with 0.1% bovine serum albumin; 50 μl/min; 1:1 binding model, KD = kd/ka.

Test [8] shares this target. The description is as above. This is another data set of the same source.
Test [9] concerns the target BMPR2-Fc variant G47D (human) (UniProt Q13873). Described as above.
Test [10] has as its target BMPR2-Fc variant Q42R (human) (UniProt Q13873). The test is described as above.
Test [11] concerns the target BMPR2-Fc variant Q92H (human) (UniProt Q13873). Described as above.
Test [12] deals with BMPR2-Fc variant S107P (human) (UniProt Q13873). Described as above.
Test [13] addresses ACVR2A GBD-Fc (human) (UniProt P27037). Put plainly: SPR; BIAcore 3000; receptor-Fc captured on immobilised anti-human IgG (Fc), CM5 chip; titration, global fit of 2.5, 5.0, 10.0, 20.0 and 40.0 nM GF injections; 25 °C; HBS/EPS (0.01 M Hepes, 0.5 M NaCl, 3 mM EDTA, 0.005% Tween 20, pH 7.4) with 0.1% bovine serum albumin; 50 μl/min; 1:1 binding model, KD = kd/ka.
Test [14] concerns the target BMPR2 GBD-Fc (WT) (human) (UniProt Q13873). The description is as above. The source holds these as a separate data set.

The source of these data is article PMC9234707.

Chain of BMPR2 GBD-Fc (WT) (human) (Q13873 whole entry): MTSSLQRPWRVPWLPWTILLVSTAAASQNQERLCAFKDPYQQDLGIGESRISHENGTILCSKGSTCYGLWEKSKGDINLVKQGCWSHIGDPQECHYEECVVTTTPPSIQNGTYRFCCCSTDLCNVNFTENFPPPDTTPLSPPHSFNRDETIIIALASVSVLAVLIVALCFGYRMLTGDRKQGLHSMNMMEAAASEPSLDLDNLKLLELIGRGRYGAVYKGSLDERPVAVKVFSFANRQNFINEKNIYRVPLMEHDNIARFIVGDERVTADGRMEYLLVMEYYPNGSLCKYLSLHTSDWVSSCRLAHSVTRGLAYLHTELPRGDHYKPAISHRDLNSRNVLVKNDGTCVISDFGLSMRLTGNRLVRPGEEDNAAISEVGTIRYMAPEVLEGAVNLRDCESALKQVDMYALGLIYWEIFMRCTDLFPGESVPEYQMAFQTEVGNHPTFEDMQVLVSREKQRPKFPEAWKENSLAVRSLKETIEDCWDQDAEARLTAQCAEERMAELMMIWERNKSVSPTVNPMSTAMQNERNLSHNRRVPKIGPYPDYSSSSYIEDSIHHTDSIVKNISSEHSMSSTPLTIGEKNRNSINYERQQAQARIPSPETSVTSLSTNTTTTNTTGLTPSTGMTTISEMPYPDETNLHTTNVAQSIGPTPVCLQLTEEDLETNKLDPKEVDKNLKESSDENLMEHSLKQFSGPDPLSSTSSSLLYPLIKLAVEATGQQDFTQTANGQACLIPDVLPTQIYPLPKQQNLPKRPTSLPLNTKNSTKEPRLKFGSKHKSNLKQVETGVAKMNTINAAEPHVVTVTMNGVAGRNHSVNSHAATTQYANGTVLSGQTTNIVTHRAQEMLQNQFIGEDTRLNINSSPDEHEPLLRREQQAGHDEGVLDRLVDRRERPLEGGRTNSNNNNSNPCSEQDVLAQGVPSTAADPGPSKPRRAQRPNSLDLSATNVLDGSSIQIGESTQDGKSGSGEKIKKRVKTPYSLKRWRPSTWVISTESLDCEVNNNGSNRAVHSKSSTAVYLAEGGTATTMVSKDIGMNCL
Chain of ACVR2A GBD-Fc (human) (P27037 whole entry): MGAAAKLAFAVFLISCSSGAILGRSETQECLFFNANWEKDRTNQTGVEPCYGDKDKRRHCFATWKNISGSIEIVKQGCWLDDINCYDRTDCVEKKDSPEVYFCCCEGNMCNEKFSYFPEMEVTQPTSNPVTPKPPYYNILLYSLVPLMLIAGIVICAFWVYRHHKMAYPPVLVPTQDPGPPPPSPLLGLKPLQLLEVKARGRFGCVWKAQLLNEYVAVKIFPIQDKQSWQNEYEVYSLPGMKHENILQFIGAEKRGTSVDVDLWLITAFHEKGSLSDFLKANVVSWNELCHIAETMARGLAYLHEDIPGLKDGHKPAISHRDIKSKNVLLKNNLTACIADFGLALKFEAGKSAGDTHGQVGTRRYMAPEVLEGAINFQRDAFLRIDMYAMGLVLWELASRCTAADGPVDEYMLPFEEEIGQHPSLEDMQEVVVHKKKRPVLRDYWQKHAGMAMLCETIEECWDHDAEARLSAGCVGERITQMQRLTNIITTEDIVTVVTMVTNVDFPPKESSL

B1: GDF11 (ligand)
chain: NLGLDCDEHSSESRCCRYPLTVDFEAFGWDWIIAPKRYKANYCSGQCEYMFMQKYPHTHLVQQANPRGSAGPCCTPTKMSPINMLYFNDKQQIIYGKIPGMVVDRCGCS
As usually defined, the Kd is the free concentration of one partner at which half of the binding sites on the other are occupied at equilibrium, for simple one-to-one binding. The koff is the rate constant with which the complex falls apart. Higher therefore signals a short-lived complex. What is called kon is the rate constant with which the complex forms. As to B1, in test [1], the Kd turned out to be 0.052 nM, the dissociation rate constant (koff) is 0.00018 s⁻¹ and the kon turned out to be 3.5e+06 M⁻¹ s⁻¹.

B2: BMP10 (ligand)
chain: NAKGNYCKRTPLYIDFKEIGWDSWIIAPPGYEAYECRGVCNYPLAEHLTPTKHAIIQALVHLKNSQKASKACCVPTKLEPISILYLDKGVVTYKFKYEGMAVSECGCR
As for B2, the Kd in test [2] came out at 2.4 nM; in [3], 0.02 nM; in test [4] it was 2.3 nM; in test [5], 0.32 nM; in test [6], 1 nM; in [1], 1 nM. Further, the Kd was 2.1 nM in test [7]; 1.8 nM in test [8]; 0.58 nM in test [9]; 2.5 nM in test [10]; 1.8 nM in test [11]; 0.86 nM in [12]. Moreover, the koff is 5.5e-05 s⁻¹ in test [2]; 2.8e-06 s⁻¹ in test [3]; 7.9e-05 s⁻¹ in test [4]; 7.8e-05 s⁻¹ in test [5]; 1.9e-05 s⁻¹ in test [6]; 0.00035 s⁻¹ in test [1]. The off-rate (koff) in [7] was determined as 0.00019 s⁻¹; in test [8], 0.00017 s⁻¹; in [9], 3.8e-05 s⁻¹; in [10] it was 0.00021 s⁻¹; in [11], 0.00015 s⁻¹; in test [12], 0.00018 s⁻¹. Also, the kon in [2] is 23000 M⁻¹ s⁻¹; in test [3] it was 140000 M⁻¹ s⁻¹; in test [4], 34000 M⁻¹ s⁻¹; in [5], 250000 M⁻¹ s⁻¹; in test [6], 19000 M⁻¹ s⁻¹; in [1], 360000 M⁻¹ s⁻¹. Also, the kon in test [7] is 91000 M⁻¹ s⁻¹; in test [8] it was 94000 M⁻¹ s⁻¹; in [9] it was 65000 M⁻¹ s⁻¹; in [10], 83000 M⁻¹ s⁻¹; in [11] it was 90000 M⁻¹ s⁻¹; in test [12], 210000 M⁻¹ s⁻¹.

B3: BMP15 (ligand)
chain: QADGISAEVTASSSKHSGPENNQCSLHPFQISFRQLGWDHWIIAPPFYTPNYCKGTCLRVLRDGLNSPNHAIIQNLINQLVDQSVPRPSCVPYKYVPISVLMIEANGSILYKEYEGMIAESCTCR
As for B3, in test [7], the Kd amounted to 6.3 nM, the off-rate constant (koff) amounted to 0.0021 s⁻¹ and the kon came to 330000 M⁻¹ s⁻¹.

B4: activin B (ligand)
chain: GLECDGRTNLCCRQQFFIDFRLIGWNDWIIAPTGYYGNYCEGSCPAYLAGVPGSASSFHTAVVNQYRMRGLNPGTVNSCCIPTKLSTMSMLYFDDEYNIVKRDVPNMIVEECGCA
As to B4, the Kd was determined as 0.0016 nM in test [13]; 0.71 nM in test [2]; 1.3 nM in test [3]; 1.4 nM in [4]; 1.1 nM in [5]; 0.28 nM in test [6]. For the same molecule, the equilibrium dissociation constant (Kd) amounted to 0.053 nM in test [1]; 2.3 nM in test [7]; 4.1 nM in test [8]; 2.9 nM in test [9]; 5 nM in [10]; 1.8 nM in test [11]. Also, the dissociation constant (Kd) in [12] was 2.6 nM. Besides, the off-rate constant (koff) in test [13] came to 9.7e-06 s⁻¹; in test [2], 0.00062 s⁻¹; in [14], 0.00082 s⁻¹; in test [3], 0.00058 s⁻¹; in [4] it was 0.00082 s⁻¹; in [5], 0.00044 s⁻¹. For the same molecule, the koff in test [6] came out at 0.00019 s⁻¹; in [1] it was 7.4e-05 s⁻¹; in test [7], 0.0018 s⁻¹; in test [9] it was 0.0013 s⁻¹; in [10], 0.0021 s⁻¹; in test [11], 0.00072 s⁻¹. In test [12], this molecule displayed a dissociation rate constant (koff) of 0.0015 s⁻¹. The kon in [13] was 6.1e+06 M⁻¹ s⁻¹; in [2] it was 880000 M⁻¹ s⁻¹; in test [3], 430000 M⁻¹ s⁻¹; in test [4], 580000 M⁻¹ s⁻¹; in test [5], 400000 M⁻¹ s⁻¹; in test [6], 670000 M⁻¹ s⁻¹. Further, the kon in test [1] turned out to be 1.4e+06 M⁻¹ s⁻¹; in [7], 790000 M⁻¹ s⁻¹; in test [8], 470000 M⁻¹ s⁻¹; in test [9], 440000 M⁻¹ s⁻¹; in [10], 420000 M⁻¹ s⁻¹; in test [11], 400000 M⁻¹ s⁻¹. Also, in test [12], the association rate constant (kon) worked out at 610000 M⁻¹ s⁻¹.

B5: Nodal (ligand)
chain: HHLPDRSQLCRKVKFQVDFNLIGWGSWIIYPKQYNAYRCEGECPNPVGEEFHPTNHAYIQSLLKRYQPHRVPSTCCAPVKTKPLSMLYVDNGRVLLDHHKDMIVEECGCL
Consider B5, for which, in test [7], the dissociation constant (Kd) is 3.2 nM, the koff was 0.00014 s⁻¹ and the kon is 42000 M⁻¹ s⁻¹.
